The values that follow come from patent US20100248309A1.

In this assay the target is elastase. In words: Given as 'coupling constant'. Second-order association with elastase, 8 nM each, residual elastase activity on succinyl-Ala-Ala-Ala-pNA at 410 nm over 1-10 min (Beatty et al.).
The kon is the second-order rate constant of association. For the substance “Human blood plasma AT (alpha-1-antitrypsin, A9204, Sigma) (from UniProt P01009 25-418)”, the on-rate (kon) was found to be 1.7e+06 M⁻¹ s⁻¹.
Take “Mutant recombinant AT F51L/M374I (human alpha-1-antitrypsin mutein, Korean Patent No. 133252) (from UniProt P01009 25-418)”: the kon turned out to be 1.7e+06 M⁻¹ s⁻¹.
Under “Mutant recombinant AT K168C/F189C (with disulfide bond) (human alpha-1-antitrypsin mutein) (from UniProt P01009 25-418)” stands 1.8e+06 M⁻¹ s⁻¹; under “wild type E. coli recombinant AT (human alpha-1-antitrypsin) (from UniProt P01009 26-418)”, 1.6e+06 M⁻¹ s⁻¹.
